Measured values from paper doi:10.1101/2025.11.23.690026, “A systematic interactome of SET1C expands its functional landscape and identifies candidate regulatory connections” (bioRxiv, 2025).

Target: T1, reconstituted SET1C (S. cerevisiae, UniProt P38827 1-1080; P39706 1-426; P36104 1-329; P38123 1-315; P43132 1-505; Q03323 …)
T1 construct: Set1, S. cerevisiae (FLAG-Set1); Swd1, untagged subunit; Swd2, untagged subunit; Swd3, untagged subunit; Bre2, untagged subunit; Sdc1, untagged subunit; Spp1, untagged subunit; Shg1, untagged subunit; also called full-length SET1C; purified SET1C; source: Sf9, coinfected with baculoviruses, purified (M2 agarose); copies: + + + + + + +
Test: pull-down; GST-tagged Snf2 fragments (250 nM) with SET1C or C762SET1C (25 nM) on glutathione-Sepharose 4B, 0.2 mg/ml BSA, 20 mM Tris-Cl pH 7.9, 150 mM NaCl, 0.1% NP-40, 4 C, 3 hours; immunoblot
Details: both partners purified

B1: GST-Snf2C-AT-hook (domain or fragment, S. cerevisiae, UniProt P22082 1384-1547, looked up)
chain: ARKQRTKKEDKSEAIDGNGEIKGENIDADNDGPRINNISAEDRADTDLAMNDDDFLSKKRKAGRPRGRPKKVKLEGSENSEPPALESSPVTGDNSPSEDFMDIPKPRTAGKTSVKSARTSTRGRGRGRGRGRGRGRGRGRPPKARNGLDYVRTPAAATSPIDIR
notes: Snf2, S. cerevisiae, AT-hook region 1384-1547; also called Snf2-AT-hook; GST-Snf2-AT-hook; source: recombinant, purified GST fusion (E. coli BL21 by the general methods)
binding result: binds
